Target: T1, Epstein-Barr virus (EBV)-encoded glycoprotein 350 (gp350) (Epstein-Barr virus, UniProt P03200 1-860)
T1 construct: also called EBV gp350; column-purified EBV gp350 protein
T1 sequence: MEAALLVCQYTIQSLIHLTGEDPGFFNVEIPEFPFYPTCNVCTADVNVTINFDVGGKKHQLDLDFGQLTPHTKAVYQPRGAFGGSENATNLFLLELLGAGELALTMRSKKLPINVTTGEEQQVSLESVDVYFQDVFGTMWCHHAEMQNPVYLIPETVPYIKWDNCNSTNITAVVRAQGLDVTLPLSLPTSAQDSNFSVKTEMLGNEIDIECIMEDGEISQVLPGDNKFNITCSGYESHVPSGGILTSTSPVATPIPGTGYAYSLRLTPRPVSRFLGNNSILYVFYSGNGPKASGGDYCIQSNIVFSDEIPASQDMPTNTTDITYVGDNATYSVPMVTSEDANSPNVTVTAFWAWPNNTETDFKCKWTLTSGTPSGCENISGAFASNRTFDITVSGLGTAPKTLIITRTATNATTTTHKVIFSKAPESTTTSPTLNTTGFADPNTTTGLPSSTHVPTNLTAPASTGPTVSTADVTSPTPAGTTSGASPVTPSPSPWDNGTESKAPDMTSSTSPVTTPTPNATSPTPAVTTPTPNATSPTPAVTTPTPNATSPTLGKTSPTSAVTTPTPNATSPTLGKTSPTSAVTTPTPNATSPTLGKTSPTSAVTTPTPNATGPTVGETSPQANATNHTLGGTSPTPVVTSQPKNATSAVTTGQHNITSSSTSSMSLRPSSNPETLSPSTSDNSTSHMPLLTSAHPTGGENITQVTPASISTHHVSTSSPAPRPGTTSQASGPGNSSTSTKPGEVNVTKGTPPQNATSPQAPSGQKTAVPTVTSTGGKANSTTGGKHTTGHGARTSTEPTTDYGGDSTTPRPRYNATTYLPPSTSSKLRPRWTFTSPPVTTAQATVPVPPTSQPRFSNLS
Test: ELISA, plate-coated purified gp350, HEK293T supernatant, anti-human IgG-HRP

B1: recombinant humanized (chimeric) 72A1 antibody, heavy chain 2 and lambda light chain (Vh2+L) (antibody, V domains shown)
VH: DVQLVESGGGLVQPGGSRKLSCAASGFTFSSFGMHWVRQAPEKGLEWVAYISSGSSTLHYADTVKGRFTISRDNPKNTLFLQMTSLRSEDTAMYYCARWGNYPHYAMDYWGQGTSVTVSS
VL: QAVLTQESALTTSPGETVTLTCRSSTGAVTTSNYANWVQEKPDHLFTGLIGGTNNRVPGVPARFSGSLIGDKAALTITGAQTEDEAIYFCVLWHSNHWVFGGGTKLTVL
notes: Murine variable regions on human IgG1 (pCIRN) and human IgK (pEIG) constant regions; HEK293T supernatant
- binding result: no binding (tested: supernatant diluted 1:2)
